Assay results as given in patent US20250333523A1 (Alector, published 2025).

Experiments:
[1] = molecular target: T1, Avi/His-HuIL18BPa (recombinant human IL-18BP isoform A with Avi and poly-His tags) (human, biotinylated with BirA on the Avi tag in some assays); experiment: ELISA, coated IL-18BP
T1 construct: also called human IL-18BP-Avi-His
T1 chain: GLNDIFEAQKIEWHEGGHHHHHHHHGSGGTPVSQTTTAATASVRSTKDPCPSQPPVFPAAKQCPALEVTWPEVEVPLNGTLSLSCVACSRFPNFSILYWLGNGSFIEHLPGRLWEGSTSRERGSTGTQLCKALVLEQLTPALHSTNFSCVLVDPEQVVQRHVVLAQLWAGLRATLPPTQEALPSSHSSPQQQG

[2] = molecular target: T2, His/Avi-CynoIL18BP (recombinant cynomolgus IL-18BP with His and Avi tags) (cynomolgus monkey); experiment: ELISA, coated IL-18BP
T2 construct: also called cynomolgus IL-18BP-Avi-His
T2 chain: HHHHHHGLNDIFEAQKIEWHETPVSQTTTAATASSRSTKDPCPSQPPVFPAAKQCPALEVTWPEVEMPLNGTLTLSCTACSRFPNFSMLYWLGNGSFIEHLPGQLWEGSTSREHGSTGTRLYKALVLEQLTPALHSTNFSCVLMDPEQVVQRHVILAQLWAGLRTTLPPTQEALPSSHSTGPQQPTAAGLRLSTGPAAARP

[3] = molecular target: T1, Avi/His-HuIL18BPa (recombinant human …); experiment: SPR Carterra LSA, IgG immobilized
[4] = molecular target: T2, His/Avi-CynoIL18BP (recombinant …); experiment: SPR Carterra LSA, IgG immobilized
[5] = molecular target: T1, Avi/His-HuIL18BPa (recombinant human …); experiment: blocking ELISA, competitor human IL-18
[6] = molecular target: T3, Avi/HisMsIL18BPd (recombinant mouse IL-18BP with Avi and poly-His tags) (mouse); experiment: ELISA, coated IL-18BP
T3 sequence (chain, biotinylated with BirA on the Avi tag in some assays): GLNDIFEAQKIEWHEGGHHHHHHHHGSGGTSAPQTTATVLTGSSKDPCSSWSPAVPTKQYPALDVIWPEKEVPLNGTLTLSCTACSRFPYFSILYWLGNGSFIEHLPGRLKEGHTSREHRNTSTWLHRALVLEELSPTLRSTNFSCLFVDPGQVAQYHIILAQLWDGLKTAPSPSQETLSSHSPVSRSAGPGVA

[7] = molecular target: T2, His/Avi-CynoIL18BP (recombinant …); experiment: blocking ELISA, competitor rhesus IL-18
[8] = molecular target: T1, Avi/His-HuIL18BPa (recombinant human …); experiment: cell-based or functional assay
[9] = molecular target: T3, Avi/HisMsIL18BPd (recombinant mouse IL-18BP with Avi and poly-His tags) (mouse); experiment: cell-based or functional assay
[10] = molecular target: T2, His/Avi-CynoIL18BP (recombinant …); experiment: cell-based or functional assay
[11] = molecular target: T4, Avi/HisMsIL18BPd (recombinant mouse IL-18BP with Avi and poly-His tags) (mouse, biotinylated with BirA on the Avi tag in some assays); experiment: ELISA, coated IL-18BP
T4 construct: also called murine IL-18BP; IL-18BP-Avi-His (mouse)
T4 chain: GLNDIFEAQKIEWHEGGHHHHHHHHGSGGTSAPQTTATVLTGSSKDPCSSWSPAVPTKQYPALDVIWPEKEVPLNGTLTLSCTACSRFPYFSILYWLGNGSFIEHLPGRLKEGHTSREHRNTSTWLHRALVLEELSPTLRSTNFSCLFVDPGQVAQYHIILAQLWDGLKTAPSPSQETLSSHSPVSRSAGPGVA

[12] = molecular target: T4, Avi/HisMsIL18BPd (recombinant mouse …); experiment: cell-based or functional assay
[13] = molecular target: T5, mouse IL-18BPd-human IgG Fc (R&D Systems, Cat. #122-BP-100) (mouse; human, UniProt Q9Z0M9 29-193); experiment: blocking ELISA, competitor mouse IL-18
T5 construct: Bought; also called mouse IL-18BPd-Fc Chimera
T5 sequence (looked up): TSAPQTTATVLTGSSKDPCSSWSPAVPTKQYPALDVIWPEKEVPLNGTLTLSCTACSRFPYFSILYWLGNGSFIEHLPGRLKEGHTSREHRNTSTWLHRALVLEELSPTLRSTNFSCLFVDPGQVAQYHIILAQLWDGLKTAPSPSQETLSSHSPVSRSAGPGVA

[14] = molecular target: T4, Avi/HisMsIL18BPd (recombinant mouse …); experiment: SPR, qualitative

B1: anti-IL18BP antibody BP-08 (antibody, human IgG1, V domains shown)
VH: QVQLQQPGAELVKPGASVKLSCKVSGYTFTSYWMHWVKQRPGQGLEWIGMIDPNSDSSRYNEKFKNRATLTADKSSSTAFMQFSSLTSEDSAVYYCARSRLGQDYWGQGTTLTVSS
VL: DIVMTQSHKFMSTSVGDRVSITCKASQDVSTAVAWYQQKPGQSPKLLIYWASTRHTGVPDRFTGSESGTDYTLIISSVQAEDLALYYCQQHFSTPYTFGGGTKLEIK
ELISA binding ratio (fold-change over background) [1]: 38.8 fold over background
ELISA binding ratio (fold-change over background) [2]: 41.5 fold over background
Kd [3]: 6.9 nM
Kd [4]: 41.4 nM
blocking ELISA signal normalized to isotype control (=1) [5]: 0.133 ratio to isotype control
ELISA binding ratio (fold-change over background) (fold over background) [6]: 35
blocking ELISA signal normalized to isotype control (=1) [7]: 0.478 ratio to isotype control
EC50 of IFNγ release, human PBMC [8]: 2.01 nM
Fold change of IFNγ at 10 µg/ml vs baseline, human PBMC [8]: 5.19 fold
Fold change of IFNγ at 10 µg/ml vs baseline, mouse splenocytes [9]: 0.75 fold
% of Max Gamma, human NK cells [10]: 58.4%
EC50 of IFNγ release, human NK cells [10]: 19.2 nM

B2: anti-IL18BP antibody BP-06 (antibody, human IgG1, V domains shown)
VH: QIQLQQSGPELVKPGASVKISCKASGYTFTDYYLNWVKQTPGQGLEWIGWIYPGSGNTKYTEKFKDKASLTVDTSSNTAYMQLSSLTSDDTAVYFCARRGVAWFAYWGQGTLVTVSA
VL: DIKMTQSPSSIYASLGERVTITCKASQDINSYLSWFQQKPGKSPKTLIHRANRLVDGVPSRFSGSGSGQDYSLTISSLEYEDMGIYYCLQHDDFPPTFGAGTNLELK
ELISA binding ratio (fold-change over background) [1]: 42.1 fold over background
ELISA binding ratio (fold-change over background) [2]: 44.3 fold over background
ELISA binding ratio (fold-change over background) [11]: 1.2 fold over background
blocking ELISA signal normalized to isotype control (=1) [5]: 0.174 ratio to isotype control
blocking ELISA signal normalized to isotype control (=1) [7]: 0.378 ratio to isotype control
EC50 of IFNγ release, human PBMC [8]: 1.23 nM
Fold change of IFNγ at 10 µg/ml vs baseline, human PBMC [8]: 10.9 fold
Fold change of IFNγ at 10 µg/ml vs baseline, mouse splenocytes [12]: 1.11 fold
blocking ELISA signal normalized to isotype control (=1) [13]: 0.971 ratio to isotype control
% of Max Gamma, human NK cells [10]: 75.8%
EC50 of IFNγ release, human NK cells [10]: 8.07 nM
binding result [14]: no binding
